Our source for the binding result, IC50 and EC50 values is US20250197491A1 (MACOMICS, published 2025).

The target in one assay is T1, Human LILRA2 ectodomain (human, UniProt Q8N149 24-449).
T1 construct: Recombinant protein from a commercial source
Description: summary table (single point ELISA); N = No. On the technique in general: An ELISA detects its analyte on a solid surface through an enzyme-linked reagent.

Assay [1] deals with LILRB4 recombinant, full-length ectodomain (LILRB4 17-257) (human, UniProt Q8NHJ6 22-257). Description: summary table (single point ELISA); N = No.
For assay [2], the target named is LILRB5 recombinant, full-length ectodomain (LILRB5 18-456) (human, UniProt O75023 24-456). Description: summary table (single point ELISA); N = No.
The target of assay [3] is LILRA5 recombinant, full-length ectodomain (LILRA5 42-268) (human, UniProt A6NI73 42-268). The experiment in a line: summary table (single point ELISA); N = No.
Assay [4] deals with T2, Human LILRB1 (D1-D2) fused to mouse IgG2a Fc (human).
T2 construct: also called truncated (D1-D2) version of the LILRB1 ecto-domain
The experiment in a line: summary table (ELISA); N = No.

For assay [5], the target named is human LILRB1 (coated on plates in the competition ELISA) (human, UniProt Q8NHL6 24-461, limits assumed). Description: competition ELISA on coated human LILRB1; competitor 5 nM biotinylated Antibody 2. As for the experimental part: FIG. 33. Cross-competition between Antibody (Clone) 2 and other Abs in ELISA. Plates were coated with human LILRB1 and, after blocking, incubated with 5 nM of biotinylated Clone 2 and different concentrations of unlabelled Clones 1-5 and the Reference 1-3 Abs. Bound biotinylated Clone 2 was detected using HRP-conjugated streptavidin and a chromogenic substrate. Unlabelled Clone 2 competed its biotinylated counterpart with low nM IC₅₀, while Clones 1, 3, 4 and 5 each yielded IC₅₀ of about 10 nM. None of the Reference Abs, nor the isotype control, could compete with Antibody 2 up to 250 nM concentrations.
Antibodies 1 to 5 were all found to bind within the D3-D4 fragment of human LILRB1. To investigate if Antibody 2 binds to an epitope similar to or different from the epitope of the other Antibodies (and Reference Antibodies) a competitive ELISA was performed. Plates were coated with human LILRB1 and after blocking incubated with 5 nM of biotinylated Antibody 2 and different concentrations of each unlabelled Antibody 1-5 and the Reference Antibodies 1 to 3. Bound biotinylated Antibody 2 was detected using HRP-conjugated streptavidin and a chromogenic substrate. Unlabelled Antibody 2 competed its biotinylated counterpart with low nM IC₅₀, while Antibodies 1, 3, 4 and 5 yielded IC₅₀ about 10 nM. None of the Reference Abs nor the isotype control could compete with Antibody 2 up to 250 nM concentrations.

Assay [6] has as its target LILRB2 recombinant, full-length ectodomain (LILRB2 22-458) (human, UniProt Q8N423 22-458). Description: multi-point ELISA, antigen coated, apparent EC50. As for the experimental part: (§1) FIG. 32. Binding of Clones 1-5 to selected LILR family members tested by multiple point ELISA. Recombinant LILRB1, LILRB2, LILRB3, LILRA1, LILRA3, LILRA4, and LILRA6, or irrelevant control protein were coated on the ELISA plates. The plates were then blocked with milk in PBST. Next, the plates were incubated with serial dilutions (12.5 nM to 0.02 nM) of Clones 1-5 (A-E). Bound antibodies were detected using HRP-conjugated anti-human Fc antibodies and the chromogenic substrate.
(§2) Binding of Clones 1-5 to selected LILR family members tested by multiple point ELISA. (FIG. 32) Recombinant LILRB1, LILRB2, LILRB3, LILRA1, LILRA3, LILRA4, LILRA6, or irrelevant control protein were coated on the ELISA plates. The plates were then blocked with milk in PBST. Next, the plates were incubated with serial dilutions (12.5 nM to 0.02 nM) of Clone 1-5 (A-E). Bound antibodies were detected using HRP-conjugated anti-human Fc antibodies and the chromogenic substrate.

Assay [7] concerns the target LILRB1 recombinant, full-length ectodomain (human, UniProt Q8NHL6 24-461). The experiment in a line: multi-point ELISA, antigen coated, apparent EC50. As for the experimental part:
as §1, §2

The next assay has as its target T3, Human LILRA1 ectodomain (human, UniProt O75019 17-461).
T3 construct: Recombinant protein from a commercial source
The experiment in a line: multi-point ELISA, antigen coated, apparent EC50. As for the experimental part: as §1, §2

The target of assay [8] is LILRA4 recombinant, full-length ectodomain (LILRA4 24-446) (human, UniProt P59901 24-446). Description: multi-point ELISA, antigen coated, apparent EC50. As for the experimental part: as §1, §2
The target in assay [9] is LILRB3 recombinant, full-length ectodomain (LILRB3 24-443) (human, UniProt O75022 24-443). The experiment in a line: multi-point ELISA, antigen coated, apparent EC50. How it is done:
as §1, §2

The next assay addresses T4, Human full length LILRA3 (human, UniProt Q8N6C8 24-439).
T4 construct: Commercial recombinant protein; also the parent of the LILRA3 peptide microarrays
Description: multi-point ELISA, antigen coated, apparent EC50. As for the experimental part:
as §1, §2

For assay [10], the target named is LILRA6 recombinant, full-length ectodomain (LILRA6 24-447) (human, UniProt Q6PI73 24-447). The experiment in a line: multi-point ELISA, antigen coated, apparent EC50. As for the experimental part: as §1, §2
For assay [11], the target named is T5, Rhesus monkey (Macaca mulatta) LILRB ectodomain fused to mIgG2a Fc (rhesus monkey (Macaca mulatta)).
T5 construct: also called rhesus LILRB-mIgG2a; rhesus LILRB protein
Description: summary table (ELISA); Rhesus & Cyno LILRB1/2 binding; Y = Yes.

The target of assay [12] is T6, Cynomolgus monkey (Macaca fascicularis) LILRB ectodomain fused to mIgG2a (cynomolgus monkey (Macaca fascicularis)).
T6 construct: also called cynomolgus LILRB protein
Described as above.

T6 sequence (chain, as listed by the source limits assumed): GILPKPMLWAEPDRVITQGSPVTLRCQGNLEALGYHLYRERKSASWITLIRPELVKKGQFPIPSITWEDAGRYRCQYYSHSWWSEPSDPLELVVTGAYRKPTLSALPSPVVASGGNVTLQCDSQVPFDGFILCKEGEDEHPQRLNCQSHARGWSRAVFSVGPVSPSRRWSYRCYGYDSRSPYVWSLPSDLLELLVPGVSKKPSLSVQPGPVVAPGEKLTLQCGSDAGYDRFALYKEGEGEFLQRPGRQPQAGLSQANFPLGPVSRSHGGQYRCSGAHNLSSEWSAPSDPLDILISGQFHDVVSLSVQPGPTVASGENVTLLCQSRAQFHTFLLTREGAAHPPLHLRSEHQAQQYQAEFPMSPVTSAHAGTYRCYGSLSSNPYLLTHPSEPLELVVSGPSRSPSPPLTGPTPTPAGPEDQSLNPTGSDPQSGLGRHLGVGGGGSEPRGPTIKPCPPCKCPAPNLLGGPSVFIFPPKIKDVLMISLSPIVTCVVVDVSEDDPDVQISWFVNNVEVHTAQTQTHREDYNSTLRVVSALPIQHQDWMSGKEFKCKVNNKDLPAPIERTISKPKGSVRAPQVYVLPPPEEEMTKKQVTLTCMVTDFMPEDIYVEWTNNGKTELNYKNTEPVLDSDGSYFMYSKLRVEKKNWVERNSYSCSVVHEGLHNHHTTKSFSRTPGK
Sequence of LILRB3 recombinant, full-length ectodomain (LILRB3 24-443) (O75022 24-443): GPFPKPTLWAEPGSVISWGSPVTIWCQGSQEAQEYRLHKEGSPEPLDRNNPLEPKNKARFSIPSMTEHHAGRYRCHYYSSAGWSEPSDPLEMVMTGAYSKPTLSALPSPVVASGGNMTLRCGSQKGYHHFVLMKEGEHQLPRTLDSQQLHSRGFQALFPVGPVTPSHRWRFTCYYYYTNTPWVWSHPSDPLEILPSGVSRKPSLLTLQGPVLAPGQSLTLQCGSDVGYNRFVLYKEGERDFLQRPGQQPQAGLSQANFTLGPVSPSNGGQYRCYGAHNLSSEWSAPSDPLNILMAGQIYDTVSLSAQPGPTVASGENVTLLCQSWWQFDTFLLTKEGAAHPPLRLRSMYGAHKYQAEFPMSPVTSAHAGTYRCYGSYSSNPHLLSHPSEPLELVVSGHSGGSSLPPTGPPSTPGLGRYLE
Sequence of LILRA4 recombinant, full-length ectodomain (LILRA4 24-446) (P59901 24-446): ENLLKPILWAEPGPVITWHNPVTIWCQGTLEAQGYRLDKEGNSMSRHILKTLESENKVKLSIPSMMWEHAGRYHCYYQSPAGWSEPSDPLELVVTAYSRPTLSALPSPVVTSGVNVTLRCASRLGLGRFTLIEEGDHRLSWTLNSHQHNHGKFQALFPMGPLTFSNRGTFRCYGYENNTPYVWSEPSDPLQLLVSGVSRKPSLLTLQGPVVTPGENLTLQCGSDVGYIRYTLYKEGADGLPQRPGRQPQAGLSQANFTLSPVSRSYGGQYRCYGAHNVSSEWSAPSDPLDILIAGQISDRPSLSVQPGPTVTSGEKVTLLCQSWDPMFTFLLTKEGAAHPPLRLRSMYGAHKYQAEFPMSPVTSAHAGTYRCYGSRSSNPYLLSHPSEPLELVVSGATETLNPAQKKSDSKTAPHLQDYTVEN
Sequence of LILRB1 recombinant, full-length ectodomain (Q8NHL6 24-461 limits assumed): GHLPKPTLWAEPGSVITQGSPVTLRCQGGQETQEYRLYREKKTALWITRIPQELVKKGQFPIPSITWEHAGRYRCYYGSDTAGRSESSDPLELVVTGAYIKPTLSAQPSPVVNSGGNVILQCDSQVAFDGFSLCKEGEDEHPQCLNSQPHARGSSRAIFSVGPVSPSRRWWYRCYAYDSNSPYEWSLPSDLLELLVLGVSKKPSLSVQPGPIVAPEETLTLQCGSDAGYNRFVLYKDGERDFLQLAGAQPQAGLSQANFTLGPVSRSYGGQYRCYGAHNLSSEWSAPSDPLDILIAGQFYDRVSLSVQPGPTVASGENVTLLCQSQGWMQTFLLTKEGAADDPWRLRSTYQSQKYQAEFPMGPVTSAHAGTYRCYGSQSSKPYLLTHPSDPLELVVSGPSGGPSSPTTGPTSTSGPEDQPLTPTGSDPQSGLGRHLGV
Sequence of human LILRB1 (coated on plates in the competition ELISA) (Q8NHL6 24-461 limits assumed): as above
Sequence of LILRB5 recombinant, full-length ectodomain (LILRB5 18-456) (O75023 24-456 limits assumed): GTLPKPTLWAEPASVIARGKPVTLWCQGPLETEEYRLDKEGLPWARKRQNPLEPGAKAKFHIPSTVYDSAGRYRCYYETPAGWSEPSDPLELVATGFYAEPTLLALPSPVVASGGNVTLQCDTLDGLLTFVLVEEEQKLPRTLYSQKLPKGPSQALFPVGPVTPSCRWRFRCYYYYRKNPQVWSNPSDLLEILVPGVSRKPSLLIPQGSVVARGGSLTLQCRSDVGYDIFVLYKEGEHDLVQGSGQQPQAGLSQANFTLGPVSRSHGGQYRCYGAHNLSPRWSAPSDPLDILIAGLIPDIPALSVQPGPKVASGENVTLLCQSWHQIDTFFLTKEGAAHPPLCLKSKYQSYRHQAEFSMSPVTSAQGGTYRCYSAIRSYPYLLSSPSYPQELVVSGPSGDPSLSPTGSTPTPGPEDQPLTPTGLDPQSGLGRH
T4 sequence (Q8N6C8 24-439 A105V limits assumed): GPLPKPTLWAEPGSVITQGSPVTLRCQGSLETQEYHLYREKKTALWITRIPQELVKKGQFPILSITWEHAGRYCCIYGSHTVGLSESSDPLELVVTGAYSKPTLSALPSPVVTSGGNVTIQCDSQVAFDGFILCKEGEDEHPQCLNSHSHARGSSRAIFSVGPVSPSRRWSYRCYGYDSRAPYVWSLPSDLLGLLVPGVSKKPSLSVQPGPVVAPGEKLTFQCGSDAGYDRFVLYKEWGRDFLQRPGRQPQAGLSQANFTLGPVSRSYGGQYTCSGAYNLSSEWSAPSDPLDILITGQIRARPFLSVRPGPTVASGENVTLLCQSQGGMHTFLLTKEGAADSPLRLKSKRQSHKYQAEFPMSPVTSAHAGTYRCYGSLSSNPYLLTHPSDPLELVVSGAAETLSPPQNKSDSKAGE
Sequence of LILRB2 recombinant, full-length ectodomain (LILRB2 22-458) (Q8N423 22-458): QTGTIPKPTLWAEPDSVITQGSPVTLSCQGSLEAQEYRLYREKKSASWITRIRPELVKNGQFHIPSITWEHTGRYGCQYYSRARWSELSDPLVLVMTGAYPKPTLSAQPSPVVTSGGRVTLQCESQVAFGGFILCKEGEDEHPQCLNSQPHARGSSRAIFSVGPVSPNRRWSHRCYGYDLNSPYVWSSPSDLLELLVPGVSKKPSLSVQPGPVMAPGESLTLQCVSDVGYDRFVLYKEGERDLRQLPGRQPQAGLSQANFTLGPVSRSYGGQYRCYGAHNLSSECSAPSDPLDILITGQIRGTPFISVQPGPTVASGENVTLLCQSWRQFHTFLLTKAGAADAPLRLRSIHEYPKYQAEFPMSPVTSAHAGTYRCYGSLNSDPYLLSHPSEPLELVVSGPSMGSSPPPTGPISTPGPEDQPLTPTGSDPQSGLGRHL
T2 sequence (chain, as listed by the source limits assumed): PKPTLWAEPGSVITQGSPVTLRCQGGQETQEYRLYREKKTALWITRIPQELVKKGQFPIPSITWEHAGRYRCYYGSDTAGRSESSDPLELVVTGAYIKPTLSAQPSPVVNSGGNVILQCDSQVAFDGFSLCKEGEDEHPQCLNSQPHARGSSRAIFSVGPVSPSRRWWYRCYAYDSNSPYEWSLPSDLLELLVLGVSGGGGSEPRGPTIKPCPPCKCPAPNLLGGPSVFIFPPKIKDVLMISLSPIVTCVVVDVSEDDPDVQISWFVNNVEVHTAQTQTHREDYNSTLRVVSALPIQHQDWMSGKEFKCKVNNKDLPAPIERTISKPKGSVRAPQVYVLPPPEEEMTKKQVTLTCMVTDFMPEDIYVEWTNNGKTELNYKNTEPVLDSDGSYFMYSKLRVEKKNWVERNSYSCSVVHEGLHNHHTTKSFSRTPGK
Sequence of LILRA6 recombinant, full-length ectodomain (LILRA6 24-447) (Q6PI73 24-447): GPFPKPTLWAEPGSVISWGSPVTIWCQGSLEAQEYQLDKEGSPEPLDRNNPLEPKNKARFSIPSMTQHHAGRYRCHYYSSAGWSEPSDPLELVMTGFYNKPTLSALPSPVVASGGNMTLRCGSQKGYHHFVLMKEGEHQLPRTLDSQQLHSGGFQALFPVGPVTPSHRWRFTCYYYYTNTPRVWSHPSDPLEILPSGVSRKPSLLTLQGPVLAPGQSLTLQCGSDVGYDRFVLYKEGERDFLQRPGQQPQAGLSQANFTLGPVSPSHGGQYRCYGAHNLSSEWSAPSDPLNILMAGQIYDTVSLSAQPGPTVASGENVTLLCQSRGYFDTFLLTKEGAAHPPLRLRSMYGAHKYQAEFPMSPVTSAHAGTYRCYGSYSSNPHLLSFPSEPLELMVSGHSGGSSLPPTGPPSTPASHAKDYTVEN
T3 sequence (O75019 17-461): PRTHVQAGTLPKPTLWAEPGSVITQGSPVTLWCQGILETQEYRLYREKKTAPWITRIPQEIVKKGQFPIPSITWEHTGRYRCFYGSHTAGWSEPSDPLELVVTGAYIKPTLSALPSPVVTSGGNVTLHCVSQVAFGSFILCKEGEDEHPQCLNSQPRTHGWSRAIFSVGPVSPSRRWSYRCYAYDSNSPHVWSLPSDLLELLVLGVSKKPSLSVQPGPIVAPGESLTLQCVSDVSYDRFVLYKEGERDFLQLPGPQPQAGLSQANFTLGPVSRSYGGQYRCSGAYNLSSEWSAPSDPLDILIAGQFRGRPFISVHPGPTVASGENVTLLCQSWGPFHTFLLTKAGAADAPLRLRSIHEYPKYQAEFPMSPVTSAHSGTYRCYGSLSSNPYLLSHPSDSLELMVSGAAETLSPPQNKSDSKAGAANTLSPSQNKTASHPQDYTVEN

B1: Antibody 1 (antibody, V domains shown)
VH: QVQLVESGGGLVKPGGSLRLSCAASGFTFSDYYMSWIRQAPGKGLEWVSYISSSGSIKKYADSVKGRFTISRDNAKNSLYLQMNSLRGEDTAVYYCARTNWHFDYWGQGTLVTVSS
VL: EIVLTQSPGTLSLSPGERATLSCRASQSVSSSYLAWYQQKPGQAPRLLIFGASTRATGIPDRFSGSGSGTDFTLTISRLEPEDVAVYYCQQYYSTPFTFGPGTKVDIK
notes: Fully human antibody expressed in CHO; also called Clone 1; Antibody Clone 1
The term IC50 denotes the concentration at which inhibition is half-maximal. As a reminder, the EC50 is the concentration at which the effect is half-maximal. B1: the binding result was “no binding (tested: 1 nM)” with Human LILRA2 ectodomain; “no binding (tested: 1 nM)” in assay [1]; “no binding (tested: 1 nM)” in assay [2]; “no binding (tested: 1 nM)” in assay [3]; “no binding” in assay [4]; “binds” in [11]. Further, in [12], the binding result is listed as “binds”. Further, in assay [5], the IC50 was about 10 nM. Also, the EC50 came to 0.73 nM in [6]; 0.55 nM in [7]; 2.38 nM in the assay with Human LILRA1 ectodomain; 0.81 nM in assay [8]; 2 nM in assay [9]; 0.97 nM in the assay with Human full length LILRA3. Besides, the EC50 in assay [10] was found to be 1.81 nM.

B2: Antibody 5 (antibody, V domains shown)
VH: QVQLVESGGGLVKPGGSLRLSCAASGFTFSDYYMTWIRQAPGKGLEWVSYISISGITRYYADSVKGRFTISRDNAKNSLYLQMNSLRAEDTAVYYCARDQTGYFDYWGQGTLVTVSS
VL: DIVMTQSPATLSVSPGEKTTLSCRASQSFSSNLAWYQQKPGQAPRLLIYGASTRATGIPARFSGSGSGTEFTLTISSLQSEDFAVYYCQQYINWPHTFGQGTKVEIK
notes: Fully human antibody; IgG4; also called Clone 5; Antibody Clone 5
Take B2: the binding result with Human LILRA2 ectodomain is on record as “no binding (tested: 1 nM)”; in assay [1], “no binding (tested: 1 nM)”; in assay [2] it was “no binding (tested: 1 nM)”; in assay [3], “no binding (tested: 1 nM)”; in assay [4], “no binding”; in assay [11] it was “binds”. The binding result in assay [12] was “binds”. The IC50 in [5] was about 10 nM. The EC50 in assay [6] worked out at 1.04 nM; in [7], 0.99 nM; in the assay with Human LILRA1 ectodomain, 9.07 nM; in [8], 0.84 nM; in assay [9], 0.99 nM; in the assay with Human full length LILRA3 it was 1.26 nM. In addition, the EC50 in assay [10] is 0.97 nM.

B3: Antibody 3 (antibody, V domains shown)
VH: QVQLVQSGAEVKKPGASVKVSCKASGYTFTSYGISWVRQAPGQGLEWMGWISAYNGNTNYAQKLQGRVTMTTDTSTSTAYMELRSLRSDDTAVYYCARSYSGSHWWFDPWGQGTLVTVSS
VL: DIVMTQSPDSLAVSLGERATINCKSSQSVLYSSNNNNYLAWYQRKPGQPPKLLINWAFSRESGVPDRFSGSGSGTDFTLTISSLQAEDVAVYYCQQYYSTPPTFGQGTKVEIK
notes: Fully human antibody; IgG4; also called Clone 3; Antibody Clone 3
For B3, the binding result is on record as “no binding (tested: 1 nM)” in the assay with Human LILRA2 ectodomain; “no binding (tested: 1 nM)” in assay [1]; “no binding (tested: 1 nM)” in assay [2]; “no binding (tested: 1 nM)” in assay [3]; “no binding” in assay [4]; “binds” in assay [11]. The binding result in assay [12] is given as “binds”. In assay [5], this molecule returned an IC50 of about 10 nM. Besides, the EC50 in assay [6] was 1.28 nM; in [7], 1.38 nM; with Human LILRA1 ectodomain, 1.76 nM; in assay [8], 1.15 nM; in [9] it was 1.75 nM; in the assay with Human full length LILRA3, 1.2 nM. Moreover, the EC50 in [10] amounted to 1.69 nM.

B4: Antibody 4 (antibody, V domains shown)
VH: QVQLVQSGAEVKKPGASVKVSCKASGYTFTSYGISWVRQAPGQGLEWMGWISAYNGNTNYAQKLQGRVTMTTDTSTSTAYMELRSLRSDDTAVYYCARSYSGSYWWFDPWGQGTLVTVSS
VL: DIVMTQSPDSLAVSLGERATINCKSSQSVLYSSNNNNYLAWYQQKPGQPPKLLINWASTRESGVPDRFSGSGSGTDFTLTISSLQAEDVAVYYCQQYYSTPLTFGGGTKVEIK
notes: Fully human antibody; IgG4; also called Clone 4; Antibody Clone 4
For the molecule B4, the binding result in the assay with Human LILRA2 ectodomain is listed as “no binding (tested: 1 nM)”; in [1], “no binding (tested: 1 nM)”; in assay [2], “no binding (tested: 1 nM)”; in assay [3], “no binding (tested: 1 nM)”; in assay [4], “no binding”; in [11], “binds”. Besides, in assay [12], the binding result is “binds”. Besides, the IC50 in assay [5] is about 10 nM. In addition, the EC50 in assay [6] came to 1.39 nM; in assay [7], 1.24 nM; with Human LILRA1 ectodomain, 4.1 nM; in assay [8] it was 1.38 nM; in assay [9], 1.38 nM; with Human full length LILRA3, 1.42 nM. In assay [10], the half-maximal effective concentration (EC50) is 2.2 nM.
